This note sets out measurements from patent publication US20250109203A1.

The assay deals with human γδ TCR (Vγ9Vδ2) on human Vδ2+ γδ T cells (human) (UniProt A0JD36). Nature of the assay: flow cytometry on expanded human Vδ2+ γδ T cells, nonlinear fit.

B1: hu1D7v11 VHH-hIgG1 Fc-NNT (monomeric) (VHH)
VHH: EVQLLESGGGEVQPGGSLRLSCVASRGKISQYRMGWYRQAPGKGLEWVAAISNTGDAAEYVDSVKGRFTISRDSTKNAVYLQMSSLRAEDTAVYKCNSVEDILAWGQGTLVTVKP
A word on the Kd: it is the constant that tells how readily two partners part at equilibrium. Higher therefore signals weaker binding. Take B1: the Kd worked out at 42.2 nM.

B2: hu1D7v29 VHH-hIgG1 Fc-NNT (monomeric) (VHH)
VHH: EVQLLESGGGEVQPGGSLRLSCVASRGKISSYRMGWYRQAPGKELEWVAHISNTGDAAEYVDSVKGRFTISRDSTKNAVYLQMSSLRAEDTAVYKCNSVEDILAWGQGTLVTVKP
In turn, B2 gave a Kd of 7230 nM.

B3: hu1D7v26 VHH-hIgG1 Fc-NNT (monomeric) (VHH)
VHH: EVQLLESGGGEVQPGGSLRLSCVASRGKISQYRMGWYRQAPGKGLEWVAHISNTGDAAEYVDSVKGRFTISRDSTKNAVYLQMSSLRAEDTAVYYCNSVEDILAWGQGTLVTVKP
Molecule B3 came in with an equilibrium dissociation constant (Kd) of 29 nM.

B4: hu1D7v32 VHH-hIgG1 Fc-NNT (monomeric) (VHH)
VHH: EVQLLESGGGEVQPGGSLRLSCVASRGKISQYRMGWYRQAPGKELEWVAHISNTGDAAEYVESVKGRFTISRDSTKNAVYLQMSSLRAEDTAVYKCNSVEDILAWGQGTLVTVKP
Take B4: the Kd turned out to be 35.7 nM.

B5: hu1D7v19 VHH-hIgG1 Fc-NNT (monomeric) (VHH)
VHH: EVQLLESGGGEVQPGGSLRLSCVASRGKISQYRMGWYRQAPGKGLEWVAHISNTGDAAEYVDSVKDRFTISRDSTKNAVYLQMSSLRAEDTAVYKCNSVEDILAWGQGTLVTVKP
In turn, B5 had a Kd of 26.7 nM.

B6: hu1D7v33 VHH-hIgG1 Fc-NNT (monomeric) (VHH)
VHH: EVQLLESGGGEVQPGGSLRLSCVASRGKISQYRMGWYRQAPGKELEWVAHISNTGDAAEYVDSVKDRFTISRDSTKNAVYLQMSSLRAEDTAVYKCNSVEDILAWGQGTLVTVKP
As to B6, the Kd is 13 nM.

B7: hu1D7v28 VHH-hIgG1 Fc-NNT (monomeric) (VHH)
VHH: EVQLLESGGGEVQPGGSLRLSCAASRGKISQYRMGWYRQAPGKELEWVAHISNTGDAAEYVDSVKGRFTISRDSTKNAVYLQMSSLRAEDTAVYKCNSVEDILAWGQGTLVTVKP
As to B7, the dissociation constant (Kd) was determined as 15.7 nM.

B8: hu1D7v14 VHH-hIgG1 Fc-NNT (monomeric) (VHH)
VHH: EVQLLESGGGEVQPGGSLRLSCVASRGKISQYRMGWYRQAPGKGLEWVAHISNTGGAAEYVDSVKGRFTISRDSTKNAVYLQMSSLRAEDTAVYKCNSVEDILAWGQGTLVTVKP
In turn, B8 displayed a Kd of 21.5 nM.

B9: hu1D7v36 VHH-hIgG1 Fc-NNT (monomeric) (VHH)
VHH: EVQLLESGGGEVQPGGSLRLSCVASRGKISQYRMGWYRQAPGKELEWVAHISNTGDAAEYVDSVKGRFTISRDSTKNAVYLQMSSLRAEDTAVYYCNSVEDILAWGQGTLVTVKP
Regarding B9, the Kd turned out to be 1500 nM.

B10: hu1D7v25 VHH-hIgG1 Fc-NNT (monomeric) (VHH)
VHH: EVQLLESGGGEVQPGGSLRLSCVASRGKISQYRMGWYRQAPGKGLEWVAHISNTGDAAEYVDSVKGRFTISRDSTKNAVYLQMSSLRAEDTAVYKCASVEDILAWGQGTLVTVKP
In the case of B10, the Kd was 866000 nM.

B11: hu1D7v18 VHH-hIgG1 Fc-NNT (monomeric) (VHH)
VHH: EVQLLESGGGEVQPGGSLRLSCVASRGKISQYRMGWYRQAPGKGLEWVAHISNTGDAAEYAESVKGRFTISRDSTKNAVYLQMSSLRAEDTAVYKCNSVEDILAWGQGTLVTVKP
For the molecule B11, the Kd is 42.5 nM.

B12: hu1D7v31 VHH-hIgG1 Fc-NNT (monomeric) (VHH)
VHH: EVQLLESGGGEVQPGGSLRLSCVASRGKISQYRMGWYRQAPGKELEWVAHISNTGDAAEYVAPVKGRFTISRDSTKNAVYLQMSSLRAEDTAVYKCNSVEDILAWGQGTLVTVKP
As to B12, the dissociation constant Kd amounted to 16.7 nM.

B13: hu1D7v15 VHH-hIgG1 Fc-NNT (monomeric) (VHH)
VHH: EVQLLESGGGEVQPGGSLRLSCVASRGKISQYRMGWYRQAPGKGLEWVAHISNTGDSAEYVDSVKGRFTISRDSTKNAVYLQMSSLRAEDTAVYKCNSVEDILAWGQGTLVTVKP
Take B13: the Kd came out at 16.4 nM.

B14: hu1D7v17 VHH-hIgG1 Fc-NNT (monomeric) (VHH)
VHH: EVQLLESGGGEVQPGGSLRLSCVASRGKISQYRMGWYRQAPGKGLEWVAHISNTGDAAYYVDSVKGRFTISRDSTKNAVYLQMSSLRAEDTAVYKCNSVEDILAWGQGTLVTVKP
Turning to B14, the Kd is 20.1 nM.

B15: hu1D7v24 VHH-hIgG1 Fc-NNT (monomeric) (VHH)
VHH: EVQLLESGGGEVQPGGSLRLSCVASRGKISQYRMGWYRQAPGKGLEWVAHISNTGDAAEYVDSVKGRFTISRDSTKNAVYLQMSSLRAEDTAVYKCNAVEDILAWGQGTLVTVKP
Molecule B15 had a Kd of 9440 nM.

B16: hu1D7v23 VHH-hIgG1 Fc-NNT (monomeric) (VHH)
VHH: EVQLLESGGGEVQPGGSLRLSCVASRGKISQYRMGWYRQAPGKGLEWVAHISNTGDAAEYVDSVKGRFTISRDSTKNALYLQMSSLRAEDTAVYKCNSVEDILAWGQGTLVTVKP
The molecule B16 came in with a Kd of 18.1 nM.

B17: hu1D7v30 VHH-hIgG1 Fc-NNT (monomeric) (VHH)
VHH: EVQLLESGGGEVQPGGSLRLSCVASRGKISQYRMGWYRQAPGKELEWVAHISNTGDAAYYVDSVKGRFTISRDSTKNAVYLQMSSLRAEDTAVYKCNSVEDILAWGQGTLVTVKP
As to B17, the dissociation constant Kd was 38.4 nM.

B18: hu1D7v34 VHH-hIgG1 Fc-NNT (monomeric) (VHH)
VHH: EVQLLESGGGEVQPGGSLRLSCVASRGKISQYRMGWYRQAPGKELEWVAHISNTGDAAEYVDSVKGRFTISRDNAKNAVYLQMSSLRAEDTAVYKCNSVEDILAWGQGTLVTVKP
Take B18: the dissociation constant Kd was 11.7 nM.

B19: hu1D7v22 VHH-hIgG1 Fc-NNT (monomeric) (VHH)
VHH: EVQLLESGGGEVQPGGSLRLSCVASRGKISQYRMGWYRQAPGKGLEWVAHISNTGDAAEYVDSVKGRFTISRDSTKNTVYLQMSSLRAEDTAVYKCNSVEDILAWGQGTLVTVKP
B19 displayed a Kd of 29.1 nM.

B20: hu1D7v13 VHH-hIgG1 Fc-NNT (monomeric) (VHH)
VHH: EVQLLESGGGEVQPGGSLRLSCVASRGKISQYRMGWYRQAPGKGLEWVAHISNSGDAAEYVDSVKGRFTISRDSTKNAVYLQMSSLRAEDTAVYKCNSVEDILAWGQGTLVTVKP
B20 came in with a Kd of 18.2 nM.

B21: hu1D7v16 VHH-hIgG1 Fc-NNT (monomeric) (VHH)
VHH: EVQLLESGGGEVQPGGSLRLSCVASRGKISQYRMGWYRQAPGKGLEWVAHISNTGDATEYVDSVKGRFTISRDSTKNAVYLQMSSLRAEDTAVYKCNSVEDILAWGQGTLVTVKP
Molecule B21 returned a Kd of 24.6 nM.

B22: hu1D7v1 VHH-hIgG1 Fc-NNT (monomeric) (VHH)
VHH: EVQLLESGGGEVQPGGSLRLSCVASRGKISQYRMGWYRQAPGKGLEWVAHISNTGDAAEYVDSVKGRFTISRDSTKNAVYLQMSSLRAEDTAVYKCNSVEDILAWGQGTLVTVKP
As for B22, the Kd was determined as 5.23 nM.

B23: hu1D7v35 VHH-hIgG1 Fc-NNT (monomeric) (VHH)
VHH: EVQLLESGGGEVQPGGSLRLSCVASRGKISQYRMGWYRQAPGKELEWVAHISNTGDAAEYVDSVKGRFTISRDSTKNALYLQMSSLRAEDTAVYKCNSVEDILAWGQGTLVTVKP
B23: the Kd was determined as 8.4 nM.

B24: 1D7 VHH-hIgG1 Fc-NNT (monomeric, parental) (VHH)
VHH: QVQLVQSGGGLVQPGGSLRLSCVASRGKISQYRMGWYRQAPGKQRELVAHISNTGDAAEYVDSVKGRFTISRDSTKNAVYLQMNSLKPEDTAVYKCNSVEDILAWGQGTQVTVKP
For the molecule B24, the Kd worked out at 6.09 nM.
